Assay results reported in article PMC4072508, “Genome-Wide Prediction and Validation of Peptides That Bind Human Prosurvival Bcl-2 Proteins” (PLoS Computational Biology, 2014).

Molecular target: T1, Bfl-1, Q16548
T1 chain: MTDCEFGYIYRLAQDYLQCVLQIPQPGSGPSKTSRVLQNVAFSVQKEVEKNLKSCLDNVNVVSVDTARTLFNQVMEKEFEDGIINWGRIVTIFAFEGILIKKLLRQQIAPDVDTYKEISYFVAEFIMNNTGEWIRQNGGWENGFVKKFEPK
Assay: peptide SPOT array, c-Myc-tagged receptor at 1 uM or 100 nM, anti-c-Myc-Cy3

| Binder | SPOT signal as a fraction of Bim BH3's signal on the same receptor and array |
| --- | --- |
| VDSIRPKCQELRHLLDQFSAEIARRR [MCF2L] | 0.27 |
| CGEWTRRSLHLRVLLRQLILPTDKGV [FAM149A] | 0.51 |
| AFGLGDLPNLDGLVGDQLGDTERKRR [ADAMTS14] | 0.04 |
| TAGLRPGARLDRVCGQTLPSLRPEAA [SIPA1] | 0.45 |
| APGEEDLCAAFNVICDNVGKDWRRLA | 0.04 |
| QEQEQHVPFDDHTYGDQLVSRFPQLN [NCAPH2] | 0.04 |
| SEIMHSFAKCIEVMGDGCLNNEHFEE [IPO5] | 0.03 |
| KGTAVAICRRDGIFGDTEDVAGKAYT [ATP2A3] | 0.06 |
| IQENVDISTVYQIFADEVLGSGQFGI [PRKD3] | 0.05 |
| LMARPAVALHDQSIADGFKEAVRYVL [SOS2] | 0.22 |
| ELLYGIWSNCLGLILDSFHMFFDSTA [SLC30A7] | 0.06 |
| ACGDSVLARMDRELGDSLRRPQLRLW [SLC19A1] | 0.13 |
| LALMMQLARELKTLLRDLGMAVVVTN [RAD51L3] | 0.07 |
| HTALENCASLLCIRADELQEALTSHC | 0.03 |
| ELDEDDLEAELDALGDELLADEDSSY [CHMP5] | 0.03 |
| FGEYSGISENIILVGDDFWIPETSFI [ROS1] | 0.04 |
| MQTLSELAKSFQDMADRCLLVLHLEV [EXOC4] | 0.04 |
| VLLTLLVAAVLRCQLQDVQEAGSCVQ [COL2A1] | 0.04 |
| TETKATFGVHLKIVLDWTERFRDLLL [NOX4] | 0.08 |
| APGEEDLCAADNVICDNVGKDWRRLA | 0.04 |
| PSECETLGSNDGHNADLLNENNILAK [ZFP90] | 0.04 |
| HTALENCASLLCIRLDELQEALTSHC | 0.03 |
| DDMFEPHSWNLKELSDDCFQQWGVRP [PRCP] | 0.05 |
| TSRINEVQVNLSLLGDDLLLPAQSTL [SPHKAP] | 0.03 |
| ERLKGQLCDVLLIVGDQKFRAHKNVL [ZNF295] | 0.21 |

Each binder was assayed against Bcl-xL, Q07817 in the same assay as above.
Chain of Bcl-xL, Q07817 (Q07817 1-209): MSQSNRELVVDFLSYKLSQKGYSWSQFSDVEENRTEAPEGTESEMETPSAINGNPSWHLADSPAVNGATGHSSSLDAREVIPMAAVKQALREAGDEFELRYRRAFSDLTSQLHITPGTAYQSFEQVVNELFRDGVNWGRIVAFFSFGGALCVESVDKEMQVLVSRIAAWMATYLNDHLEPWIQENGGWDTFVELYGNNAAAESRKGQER

| Binder | SPOT signal as a fraction of Bim BH3's signal on the same receptor and array |
| --- | --- |
| VDSIRPKCQELRHLLDQFSAEIARRR [MCF2L] | 0.6 |
| CGEWTRRSLHLRVLLRQLILPTDKGV [FAM149A] | 0.53 |
| AFGLGDLPNLDGLVGDQLGDTERKRR [ADAMTS14] | 0.05 |
| TAGLRPGARLDRVCGQTLPSLRPEAA [SIPA1] | 0.72 |
| APGEEDLCAAFNVICDNVGKDWRRLA | 0.08 |
| QEQEQHVPFDDHTYGDQLVSRFPQLN [NCAPH2] | 0.05 |
| SEIMHSFAKCIEVMGDGCLNNEHFEE [IPO5] | 0.09 |
| KGTAVAICRRDGIFGDTEDVAGKAYT [ATP2A3] | 0.08 |
| IQENVDISTVYQIFADEVLGSGQFGI [PRKD3] | 0.08 |
| LMARPAVALHDQSIADGFKEAVRYVL [SOS2] | 0.17 |
| ELLYGIWSNCLGLILDSFHMFFDSTA [SLC30A7] | 0.07 |
| ACGDSVLARMDRELGDSLRRPQLRLW [SLC19A1] | 0.27 |
| LALMMQLARELKTLLRDLGMAVVVTN [RAD51L3] | 0.11 |
| HTALENCASLLCIRADELQEALTSHC | 0.07 |
| ELDEDDLEAELDALGDELLADEDSSY [CHMP5] | 0.06 |
| FGEYSGISENIILVGDDFWIPETSFI [ROS1] | 0.07 |
| MQTLSELAKSFQDMADRCLLVLHLEV [EXOC4] | 0.05 |
| VLLTLLVAAVLRCQLQDVQEAGSCVQ [COL2A1] | 0.05 |
| TETKATFGVHLKIVLDWTERFRDLLL [NOX4] | 0.07 |
| APGEEDLCAADNVICDNVGKDWRRLA | 0.06 |
| PSECETLGSNDGHNADLLNENNILAK [ZFP90] | 0.11 |
| HTALENCASLLCIRLDELQEALTSHC | 0.05 |
| DDMFEPHSWNLKELSDDCFQQWGVRP [PRCP] | 0.06 |
| TSRINEVQVNLSLLGDDLLLPAQSTL [SPHKAP] | 0.06 |
| ERLKGQLCDVLLIVGDQKFRAHKNVL [ZNF295] | 0.38 |

Molecular target: T2, Mcl-1, Q07820
T2 chain: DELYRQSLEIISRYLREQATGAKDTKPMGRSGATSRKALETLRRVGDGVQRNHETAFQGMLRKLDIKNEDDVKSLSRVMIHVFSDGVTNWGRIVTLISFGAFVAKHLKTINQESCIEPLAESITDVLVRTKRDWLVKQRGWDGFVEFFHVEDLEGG
Assay: as above

| Binder | SPOT signal as a fraction of Bim BH3's signal on the same receptor and array |
| --- | --- |
| VDSIRPKCQELRHLLDQFSAEIARRR [MCF2L] | 0.25 |
| CGEWTRRSLHLRVLLRQLILPTDKGV [FAM149A] | 0.53 |
| AFGLGDLPNLDGLVGDQLGDTERKRR [ADAMTS14] | 0.04 |
| TAGLRPGARLDRVCGQTLPSLRPEAA [SIPA1] | 0.63 |
| APGEEDLCAAFNVICDNVGKDWRRLA | 0.16 |
| QEQEQHVPFDDHTYGDQLVSRFPQLN [NCAPH2] | 0.04 |
| SEIMHSFAKCIEVMGDGCLNNEHFEE [IPO5] | 0.04 |
| KGTAVAICRRDGIFGDTEDVAGKAYT [ATP2A3] | 0.08 |
| IQENVDISTVYQIFADEVLGSGQFGI [PRKD3] | 0.04 |
| LMARPAVALHDQSIADGFKEAVRYVL [SOS2] | 0.45 |
| ELLYGIWSNCLGLILDSFHMFFDSTA [SLC30A7] | 0.06 |
| ACGDSVLARMDRELGDSLRRPQLRLW [SLC19A1] | 0.15 |
| LALMMQLARELKTLLRDLGMAVVVTN [RAD51L3] | 0.1 |
| HTALENCASLLCIRADELQEALTSHC | 0.03 |
| ELDEDDLEAELDALGDELLADEDSSY [CHMP5] | 0.03 |
| FGEYSGISENIILVGDDFWIPETSFI [ROS1] | 0.04 |
| MQTLSELAKSFQDMADRCLLVLHLEV [EXOC4] | 0.04 |
| VLLTLLVAAVLRCQLQDVQEAGSCVQ [COL2A1] | 0.06 |
| TETKATFGVHLKIVLDWTERFRDLLL [NOX4] | 0.08 |
| APGEEDLCAADNVICDNVGKDWRRLA | 0.03 |
| PSECETLGSNDGHNADLLNENNILAK [ZFP90] | 0.04 |
| HTALENCASLLCIRLDELQEALTSHC | 0.03 |
| DDMFEPHSWNLKELSDDCFQQWGVRP [PRCP] | 0.04 |
| TSRINEVQVNLSLLGDDLLLPAQSTL [SPHKAP] | 0.04 |
| ERLKGQLCDVLLIVGDQKFRAHKNVL [ZNF295] | 0.25 |
